Results on 16 substances are retold here after the array DNA melting data of Ke et al..

As a reminder, the Tm is the temperature at the midpoint of the melting transition.

The nature of this series: melting temperature; UV melt of duplexes.

Turning to “TACTTCCAGTGCTCAGCGTA+TACGCTGAGCACTGGAAGTA ((((((((((((((((((((+))))))))))))))))))))”, the Tm (sodium 0.07 M, strand 2 µM) was 60.3 °C; the Tm (sodium 0.12 M, strand 2 µM) was found to be 64.4 °C; the Tm (sodium 0.22 M, strand 2 µM) was found to be 67.7 °C; the melting temperature (Tm) (sodium 0.62 M, strand 2 µM) was 71.6 °C; the Tm (sodium 1.02 M, strand 2 µM) turned out to be 73.6 °C.

As to “AAATATAAGAATTCTTATATTT+AAATATAAGAATTCTTATATTT ((((((((((((((((((((((+))))))))))))))))))))))”, for the setting “sodium 0.12 M, strand 7 µM”, the Tm turned out to be 48.9 °C.

In the case of “GTTCACGTCCGAAAGCTCGAAAAAGGATAC+GTATCCTTTTTCGAGCTTTCGGACGTGAAC ((((((((((((((((((((((((((((((+))))))))))))))))))))))))))))))”, the Tm is 64.3 °C (sodium 0.07 M, strand 2 µM); 68.2 °C (sodium 0.12 M, strand 2 µM); 72.1 °C (sodium 0.22 M, strand 2 µM); 77.1 °C (sodium 0.62 M, strand 2 µM); 78.7 °C (sodium 1.02 M, strand 2 µM).

Regarding “GTGGTGGGCCGTGCGCTCTG+CAGAGCGCACGGCCCACCAC ((((((((((((((((((((+))))))))))))))))))))”, the Tm reads like this: (sodium 0.07 M, strand 2 µM) 69.2 °C; (sodium 0.12 M, strand 2 µM) 72.7 °C; (sodium 0.22 M, strand 2 µM) 76.2 °C; (sodium 0.62 M, strand 2 µM) 79.6 °C; (sodium 1.02 M, strand 2 µM) 81 °C.

For the substance “CAGTGGGCTCCTGGGCGTGCTGGTC+GACCAGCACGCCCAGGAGCCCACTG (((((((((((((((((((((((((+)))))))))))))))))))))))))”, the Tm runs as follows: (sodium 0.07 M, strand 2 µM) 72 °C; (sodium 0.12 M, strand 2 µM) 75.6 °C; (sodium 0.22 M, strand 2 µM) 79.2 °C; (sodium 0.62 M, strand 2 µM) 82.6 °C; (sodium 1.02 M, strand 2 µM) 83.4 °C.

Turning to “AGCTGCAGTGGATGTGAGAA+TTCTCACATCCACTGCAGCT ((((((((((((((((((((+))))))))))))))))))))”, the Tm (sodium 0.07 M, strand 2 µM) is 59.7 °C; the Tm (sodium 0.12 M, strand 2 µM) turned out to be 63.5 °C; the Tm (sodium 0.22 M, strand 2 µM) turned out to be 67.6 °C; the Tm (sodium 0.62 M, strand 2 µM) turned out to be 71.3 °C; the Tm (sodium 1.02 M, strand 2 µM) turned out to be 73.1 °C.

Turning to “TTATGTATTAAGTTATATAGTAGTAGTAGT+ACTACTACTACTATATAACTTAATACATAA ((((((((((((((((((((((((((((((+))))))))))))))))))))))))))))))”, the Tm by setting is: (sodium 0.07 M, strand 2 µM) 50.7 °C; (sodium 0.12 M, strand 2 µM) 55 °C; (sodium 0.22 M, strand 2 µM) 59.3 °C; (sodium 0.62 M, strand 2 µM) 65.1 °C; (sodium 1.02 M, strand 2 µM) 66.6 °C.

For “ATAAATAAAGCTTTATTTAT+ATAAATAAAGCTTTATTTAT ((((((((((((((((((((+))))))))))))))))))))”, where the note is “sodium 0.12 M, strand 7 µM”, the Tm amounted to 46.2 °C.

For “AATATATATAGAGTAATTATAA+TTATAATTACTCTATATATATT ((((((((((((((((((((((+))))))))))))))))))))))”, the Tm (sodium 0.12 M, strand 5 µM) is 45.1 °C.

Turning to “CCATCATTGTGTCTACCTCA+TGAGGTAGACACAATGATGG ((((((((((((((((((((+))))))))))))))))))))”, the Tm came to 55.6 °C (sodium 0.07 M, strand 2 µM); 59.5 °C (sodium 0.12 M, strand 2 µM); 63.1 °C (sodium 0.22 M, strand 2 µM); 67.3 °C (sodium 0.62 M, strand 2 µM); 68.5 °C (sodium 1.02 M, strand 2 µM).

In the case of “TGGATTCTACTCAACCTTAGTCTGG+CCAGACTAAGGTTGAGTAGAATCCA (((((((((((((((((((((((((+)))))))))))))))))))))))))”, the Tm is, setting by setting: (sodium 0.07 M, strand 2 µM) 59 °C; (sodium 0.12 M, strand 2 µM) 63.1 °C; (sodium 0.22 M, strand 2 µM) 67.1 °C; (sodium 0.62 M, strand 2 µM) 71.3 °C; (sodium 1.02 M, strand 2 µM) 73.6 °C.

On to “TATGTATATTTTGTAATCAG+CTGATTACAAAATATACATA ((((((((((((((((((((+))))))))))))))))))))”, for which the Tm was 44.4 °C (sodium 0.07 M, strand 2 µM); 47.7 °C (sodium 0.12 M, strand 2 µM); 52.6 °C (sodium 0.22 M, strand 2 µM); 57.6 °C (sodium 0.62 M, strand 2 µM); 61.2 °C (sodium 1.02 M, strand 2 µM).

For the substance “ACGCCCACAGGATTAGGCTGGCCCACATTG+CAATGTGGGCCAGCCTAATCCTGTGGGCGT ((((((((((((((((((((((((((((((+))))))))))))))))))))))))))))))”, the Tm turned out to be 71.3 °C (sodium 0.07 M, strand 2 µM); 74.7 °C (sodium 0.12 M, strand 2 µM); 78.5 °C (sodium 0.22 M, strand 2 µM); 82.7 °C (sodium 0.62 M, strand 2 µM); 84 °C (sodium 1.02 M, strand 2 µM).

“AAATATAGCTATATTT+AAATATAGCTATATTT ((((((((((((((((+))))))))))))))))”: the Tm (sodium 0.12 M, strand 5 µM) was 40.4 °C.

“GAGATTGTTTCCCTTTCAAA+TTTGAAAGGGAAACAATCTC ((((((((((((((((((((+))))))))))))))))))))”: the Tm reads like this: (sodium 0.07 M, strand 2 µM) 49.3 °C; (sodium 0.12 M, strand 2 µM) 52.8 °C; (sodium 0.22 M, strand 2 µM) 57.6 °C; (sodium 0.62 M, strand 2 µM) 62.6 °C; (sodium 1.02 M, strand 2 µM) 65.3 °C.

As for “GCCCCTCCACTGGCCGACGGCAGCAGGCTC+GAGCCTGCTGCCGTCGGCCAGTGGAGGGGC ((((((((((((((((((((((((((((((+))))))))))))))))))))))))))))))”, the Tm is, setting by setting: (sodium 0.07 M, strand 2 µM) 76.3 °C; (sodium 0.12 M, strand 2 µM) 79.8 °C; (sodium 0.22 M, strand 2 µM) 83.6 °C; (sodium 0.62 M, strand 2 µM) 87.1 °C; (sodium 1.02 M, strand 2 µM) 87.7 °C.
